Experimental data from the PETadex activity labels (doi:10.1002/cbic.201800097).

Substrate: BHET
Experiment: Proxy for plastic degradation [Released monomer concentration (HPLC/LC-MS) (MHET+TPA)]
Conditions: pH 7.5

Protein | Proxy for plastic degradation
unnamed (protein) NPYARGPNPTAASLEASAGPFTVRSFTVSRPSGYGAGTVYYPTNAGGTVGAIAIVPGYTARQSSIKWWGPRLASHGFVVITIDTNSTLDQPSSRSSQQMAALRQVASLNGTSSSPIYGKVDTARMGVMGWAMGGGGSLISAANNPSLKAAAPQAPWDSSTNFSSVTVPTLIFACENDSIAPVNSSALPIYDSMSRNAKQFLEINGGSHSCANSGNSNQALIGKKGVAWMKRFMDNDTRYSTFACENPNSTRVSDFRTANCS | 0.06 µM
unnamed (protein) NPYARGPNPTAASLEASAGPFTVRSFTVSRPSGYGAGTVYYPTNAGGTVGAIAIVPGYTARQSSIKWWGPRLASHGFVVITIDTNSTLDQPSSRSSQQMAALRQVASLNGTSSSPIYGKVDTARMGVMGWSMGGGGSLISAANNPSLKAAAPQAPWDSSTNFSSVTVPTLIFACENASIAPVNSSALPIYDSMSRNAKQFLEINGGSHSCANSGNSNQALIGKKGVAWMKRFMDNDTRYSTFACENPNSTRVSDFRTANCS | 0.03 µM
unnamed (protein) NPYARGPNPTAASLEASAGPFTVRSFTVSRPSGYGAGTVYYPTNAGGTVGAIAIVPGYTARQSSIKWWGPRLASHGFVVITIDTNSTLDQPSSRSSQQMAALRQVASLNGTSSSPIYGKVDTARMGVMGASMGGGGSLISAANNPSLKAAAPQAPWDSSTNFSSVTVPTLIFACENDSIAPVNSSALPIYDSMSRNAKQFLEINGGSHSCANSGNSNQALIGKKGVAWMKRFMDNDTRYSTFACENPNSTRVSDFRTANCS | 0.23 µM
